Measured values as given in US6716858B1, “Methods for inhibiting diabetic complications” (Kansas University Medical Center, priority 1995, dated 2004).

Tests used:
[1] = test system: post-Amadori AGE formation, RNase Amadori intermediate; assay: Interrupted (post-Amadori) ribose glycation assay, RNase; format: biochemical, bovine; details: up to 50 mM; protein not stated (FIG. 21)
Experimental: ELISA detection of AGE products. The general method of Engvall (1981, Methods Enzymol. 70:419-439) was used to perform the ELISA. Typically, glycated protein samples were diluted to approximately 1.5 ug/ml in 0.1 M sodium carbonate buffer of pH 9.5 to 9.7. The protein was coated overnight at room temperature onto 96-well polystyrene plates by pippetting 200 ul of the protein solution in each well (0.3 ug/well). After coating, the protein was washed from the wells with a saline solution containing 0.05% Tween-20. The wells were then blocked with 200 ul of 1% casein in carbonate buffer for 2 h at 37° C. followed by washing. Rabbit anti-AGE antibodies were diluted at a titer of about 1:350 in incubation buffer, and incubated for 1 h at 37° C., followed by washing. In order to minimize background readings, antibodies R479 used to detect glycated RNase were raised against glycated BSA, and antibodies R618 used to detect glycated BSA and glycated Hb were raised against glycated RNase. An alkaline phosphatase-conjugated antibody to rabbit IgG was then added as the secondary antibody at a titer of 1:2000 or 1:2500 (depending on lot) and incubated for 1 h at 37° C., followed by washing. The p-nitrophenylphosphate substrate solution was then added (200 ul/well) to the plates, with the absorbance of the released p-nitrophenolate being monitored at 410 nm with a Dynatech MR 4000 microplate reader.
Glycation Modifications Modification with ribose or glucose was generally done at 37° C. in 0.4 M phosphate buffer of pH 7.5 containing 0.02% sodium azide. The high buffer concentration was always used with 0.5 M ribose modifications. The solutions were kept in capped tubes and opened only to remove timed aliquots that were immediately frozen for later carrying out the various analyses. “Interrupted glycation” experiments were carried out by first incubating protein with the ribose at 37° C. for 8 or 24 h, followed by immediate and extensive dialysis against frequent cold buffer changes at 4° C. The samples were then reincubated by quickly warming to 37° C. in the absence of external ribose. Aliquots were taken and frozen at various intervals for later analysis. Due to the low molecular weight of RNase, protein concentrations were remeasured after dialysis even when low molecular weight cut-off dialysis tubing was used. An alternative procedure was also devised (see below) in which interruption was achieved by simple 100-fold dilution from reaction mixtures containing 0.5 M ribose. Protein concentrations were estimated from UV spectra. The difference in molar extinction between the peak (278 nm) and trough (250 nm) was used for RNase concentration determinations in order to compensate for the general increase in UV absorbance that accompanies glycation. Time-dependent UV-difference spectral studies were carried out to characterize the glycation contributions of the UV spectrum. […]
Glycation was first carried out by incubating protein (10 mg/ml) with 0.5 M ribose at 37° C. in 0.4 M phosphate buffer at pH 7.5 containing 0.2% sodium azide for 24 h in the absence of inhibitors. Glycation was then interrupted to remove excess and reversibly bound (Schiff base) sugar by extensive dialysis against frequent cold buffer changes at 4° C.

[2] = test system: Sprague-Dawley rats, glomerular changes; format: in vivo, rat; details: for Alcian Blue pH 1.0, scoring of glomerular staining (sulfated glycosaminoglycans) / Alcian Blue pH 2.5, scoring of glomerular staining (acidic glycosaminoglycans) / HS core protein (Ab BL-31), scoring of glomerular staining: 6 weeks, average with standard error; for Alcian Blue pH 1.0, scoring of glomerular staining (sulfated glycosaminoglycans) / Alcian Blue pH 2.5, scoring of glomerular staining (acidic glycosaminoglycans) / HS core protein (Ab BL-31), scoring of glomerular staining / Creat C-2wk / Creat C-6wk: n = 4; for Creat C-2wk: creatinine clearance at 2 weeks; for Creat C-6wk: creatinine clearance at 6 weeks; for average glomerular volume / decrease in heparan sulfate (HS) side-chain staining relative to controls / glomerular albumin deposition / cross-linking relative to controls / immunofluorescent glomerular staining for Heparan Sulfate Proteoglycan Core protein / immunofluorescent glomerular staining for Heparan Sulfate Proteoglycan side-chain / immunofluorescent glomerular staining for RSA / increase in glomerular volume (GV) relative to controls / Alcian blue pH 1.0 glomerular staining versus controls / increase in acidic glycosaminoglycans, Alcian Blue pH 2.5 staining: rat, in vivo
Experimental: Male Sprague-Dawley rats (Sasco, 100 g) were used. After a 1 week adaptation period, rats were placed in metabolic cages to obtain a 24 hour urine specimen for 2 days before administration of injections. Rats were then divided into experimental and control groups and given tail vein injections with either saline, unmodified RSA (50 mg/kg), Amadori-RSA (50 mg/kg), NaBH4-reduced Amadori-RSA (50 mg/kg), or AGE-RSA (50 mg/kg).
Rats injected with Amadori-RSA and AGE-RSA were then either left untreated, or further treated by the administration of either aminoguanidine (AG; 25 mg/kg), pyridoxamine (PM; 25 mg/kg), or a combination of AG and PM (10 mg/kg each) through the drinking water. Body weight and water intake of the rats were monitored weekly in order to adjust dosages. At the conclusion of the experimental study the rats were placed in metabolic cages to obtain 24 hour urine specimen for 2 days prior to sacrificing the animals.
After perfusion with saline, kidney sections were fixed in ice-cold 10% neutral buffered formalin. Paraffin-embedded tissue sections from all rat groups (n=4 per group) were processed for staining with Harris' alum hematoxylin and eosin (H&E), perodic acid/Schiff reagent (PAS), and alcian blue (pH 1.0 and pH 2.5) stains for histological examination. The alcian blue sections were scored by two investigators in a blinded fashion.
Parrafin-embedded sections were deparaffinized and then blocked with 10% goat serum in PBS for 30 min at room temperature. […] The sections were then rinsed for 30 min with PBS in the dark, mounted in aqueous mounting media for immunocytochemistry (Biomeda), and cover slipped. Sections were scored in a blinded fashion. Kidney sections were evaluated by the number and intensity of glomerular staining in 5 regions around the periphery of the kidney. Scores were normalized for the immunofluorescent score per 100 glomeruli with a scoring system of 0-3.
All animals studies were carried out in conformance with institutional guidelines for animal research protocols. Male Sprague-Dawley 100 g rats (Sasco Co., Omaha Nebr.) were used in these studies. After a 1 week adaptation period, rats were placed in metabolic cages for 2 days to get two 24 hour urine specimens before starting treatment. Rats were then given daily single tail vein injections for 6 weeks according to the following treatment groups: saline, unmodified RSA (50 mg/kg), Amadori-RSA (50 mg/kg), NaBH4-reduced Amadori-RSA (50 mg/kg), and AGE-RSA (50 mg/kg). Groups of rats injected with Amadori-RSA or AGE-RSA were also administered aminoguanidine (25 mg/kg/day), pyridoxamine (25 mg/kg/day), a combination of the two (10 mg/kg/day each), or with nothing added to the drinking water. Body weight and water intake of the rat were monitored weekly in order to adjust dosages. At the conclusion of the study, the rats were placed in metabolic cages for two days to get two 24 hour urine specimens before sacrificing the animals.
Total protein in urine was determined by Bio-Rad assay. Albumin in urine was determined by competitive ELISA using rabbit anti-rat serum albumin (Cappell) as primary antibody (1:2000) and goat anti-rabbit IgG (Sigma) as a secondary antibody (1:2000). Urine was tested with Multistix 8 SG (Miles) for glucose, ketone, specific gravity, blood, pH, protein, nitrite and leukocytes. Creatinine measurements were performed with a Beckman creatinine analyzer II. Intracardiac blood samples were collected before termination and were used in the determination of creatinine clearance, blood glucose (glucose oxidase, Sigma), fructosamine (nitroblue tetrazolium, Sigma), and glycated Hb (Glycotest II analytical boronate columns, Pierce).
After perfusion with saline, kidney sections were fixed in ice-cold 10% neutral buffered formalin. […]

Molecule: CC(=O)N[C@@H](CCCCN)C(=O)O [N^60 -acetyl-L-lysine, N^α-acetyl-L-lysine]
- inhibition of post-Amadori AGE formation [1]: failed to exhibit any significant inhibition of AGE formation

Molecule: Amadori-RSA: rat serum albumin incubated with 0.5 M ribose for 12 hours, then dialyzed; negative for antigenic AGEs
- Alcian Blue pH 1.0, scoring of glomerular staining (sulfated glycosaminoglycans) [2]: 2.00 ± 0.41
- Alcian Blue pH 2.5, scoring of glomerular staining (acidic glycosaminoglycans) [2]: 2.12 ± 0.12
- HS core protein (Ab BL-31), scoring of glomerular staining [2]: 235 ± 12
- Creat C-2wk [2]: 1.02 ± 0.10 ml/(min*100g)
- Creat C-6wk [2]: 0.60 ± 0.10 ml/(min*100g)
- average glomerular volume [2]: significant increase in average glomeruli volume
- decrease in heparan sulfate (HS) side-chain staining relative to controls [2]: 25%
- glomerular albumin deposition / cross-linking relative to controls [2]: not different from the controls
- immunofluorescent glomerular staining for Heparan Sulfate Proteoglycan Core protein [2]: slightly reduced staining
- immunofluorescent glomerular staining for Heparan Sulfate Proteoglycan side-chain [2]: highly reduced staining
- immunofluorescent glomerular staining for RSA [2]: elevated staining
- increase in glomerular volume (GV) relative to controls [2]: 35%
- Alcian blue pH 1.0 glomerular staining versus controls [2]: no significant difference
- increase in acidic glycosaminoglycans, Alcian Blue pH 2.5 staining [2]: 50-60%

Molecule: AGE-RSA: Amadori-RSA re-incubated in the absence of sugar for 2-3 days at 37° C.
- Alcian Blue pH 1.0, scoring of glomerular staining (sulfated glycosaminoglycans) [2]: 1.25 ± 0.14
- Alcian Blue pH 2.5, scoring of glomerular staining (acidic glycosaminoglycans) [2]: 2.44± 0.21
- HS core protein (Ab BL-31), scoring of glomerular staining [2]: 238 ± 10
- Creat C-2wk [2]: 0.56 ± 0.04 ml/(min*100g)
- Creat C-6wk [2]: 0.86 ± 0.11 ml/(min*100g)
- average glomerular volume [2]: significant increase in average glomeruli volume
- decrease in heparan sulfate (HS) side-chain staining relative to controls [2]: 50%
- glomerular albumin deposition / cross-linking relative to controls [2]: four-fold increase
- immunofluorescent glomerular staining for Heparan Sulfate Proteoglycan Core protein [2]: slightly reduced staining
- immunofluorescent glomerular staining for Heparan Sulfate Proteoglycan side-chain [2]: highly reduced staining
- immunofluorescent glomerular staining for RSA [2]: elevated staining
- increase in glomerular volume (GV) relative to controls [2]: 30%
- Alcian blue pH 1.0 glomerular staining versus controls [2]: significantly decreased
- increase in acidic glycosaminoglycans, Alcian Blue pH 2.5 staining [2]: 50-60%

B1: RSA: purified rat serum albumin, unmodified (protein, UniProt P02770 25-608, looked up)
Albumin: EAHKSEIAHRFKDLGEQHFKGLVLIAFSQYLQKCPYEEHIKLVQEVTDFAKTCVADENAENCDKSIHTLFGDKLCAIPKLRDNYGELADCCAKQEPERNECFLQHKDDNPNLPPFQRPEAEAMCTSFQENPTSFLGHYLHEVARRHPYFYAPELLYYAEKYNEVLTQCCTESDKAACLTPKLDAVKEKALVAAVRQRMKCSSMQRFGERAFKAWAVARMSQRFPNAEFAEITKLATDVTKINKECCHGDLLECADDRAELAKYMCENQATISSKLQACCDKPVLQKSQCLAEIEHDNIPADLPSIAADFVEDKEVCKNYAEAKDVFLGTFLYEYSRRHPDYSVSLLLRLAKKYEATLEKCCAEGDPPACYGTVLAEFQPLVEEPKNLVKTNCELYEKLGEYGFQNAVLVRYTQKAPQVSTPTLVEAARNLGRVGTKCCTLPEAQRLPCVEDYLSAILNRLCVLHEKTPVSEKVTKCCSGSLVERRPCFSALTVDETYVPKEFKAETFTFHSDICTLPDKEKQIKKQTALAELVKHKPKATEDQLKTVMGDFAQFVDKCCKAADKDNCFATEGPNLVARSKEALA
- Alcian Blue pH 1.0, scoring of glomerular staining (sulfated glycosaminoglycans) [2]: 2.75 ± 0.14
- Alcian Blue pH 2.5, scoring of glomerular staining (acidic glycosaminoglycans) [2]: 1.38 ± 0.24
- HS core protein (Ab BL-31), scoring of glomerular staining [2]: 226 ± 10
- Creat C-2wk [2]: 0.86 ± 0.16 ml/(min*100g)
- Creat C-6wk [2]: 0.70 ± 0.02 ml/(min*100g)

B2: NaBH4-reduced: Amadori-RSA reduced with NaBH4 (protein, UniProt P02770 25-608, looked up)
Albumin: B1 Albumin
modifications: ribose-glycated, NaBH4-reduced
- Alcian Blue pH 2.5, scoring of glomerular staining (acidic glycosaminoglycans) [2]: 1.81 ± 0.47
- HS core protein (Ab BL-31), scoring of glomerular staining [2]: 203 ± 14
- Creat C-6wk [2]: 0.86 ± 0.07 ml/(min*100g)
